The results in this text go back to the supplement of paper PMC12042874.

± gives the uncertainty stated by the source.

This data set can be described thus: amyloid nucleation score (Sup35N fusion, yeast selection) (log enrichment); library NNK1; higher = more nucleation; inactive = no reads after selection. The method in brief:
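The nucleation score equals the log enrichment of output over input reads from DiMSum, centred on the mode score of non-aggregating sequences. It was computed only for sequences with 100 or more input reads. The reads came from Illumina sequencing of plasmid inserts from psi-negative yeast expressing Sup35N fused to peptides of 20 random codons, induced with 100 μM copper sulfate for 24 hours and grown 7 days at 30°C without adenine and uracil.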

With VSGIVPDDLSVFDVHSKYV, the amyloid nucleation score came out at 0.455 ± 0.33. With LNKTSFPWLKSYKVWRNVMD, the amyloid nucleation score is 1.71 ± 0.58. In turn, IWSSVQEFLGCMFWVIRINH displayed an amyloid nucleation score of 1.77 ± 0.45. The result for DWPFQYDVKSRLVILLWFVR reads 0.086 ± 1.4. In turn, VNYFARSGASKICML had an amyloid nucleation score of -0.366 ± 0.88. Consider LMTNKKNVMMRRIHTGVASN, for which the amyloid nucleation score came to 0.368 ± 0.97. For GWIRPVAKSRLWSFSPMEMI, the amyloid nucleation score was -0.768 ± 0.62.

KLVLYEVFSSKKKHIFLSHQ displayed an amyloid nucleation score of 0.586 ± 0.26. YQYNATFFPSITRTNLETKG came in with an amyloid nucleation score of 0.337 ± 0.49.

WTAWADNSACSLCGQN: the amyloid nucleation score turned out to be 0.859 ± 0.73. Regarding VVVVIFDFRCNKLQ, the amyloid nucleation score was found to be 2.28 ± 0.2. For the substance SCLPDQMKVVVPLMWLKFSR, the amyloid nucleation score was -0.266 ± 0.33. As to SWWVGTCFSGQWTVLGFP, the amyloid nucleation score turned out to be 0.961 ± 0.69. For the substance KHVGWSYG, the amyloid nucleation score is 0.779 ± 0.48. QTRWACTTQCGCKCFFE: the amyloid nucleation score came to 1.53 ± 0.15. The result for GFYGRICL reads 0.101 ± 0.46. As to EDTSMELWVSAGIRGGLPLV, the amyloid nucleation score is -1.13 ± 0.94. Substance ENITPPLYNDDYRYQ returned an amyloid nucleation score of 0.305 ± 0.58. KILCWNIFLPYKGVRGRFGM had an amyloid nucleation score of 6.895 ± 0.053.

Consider GNIDGICERSCNRFANYIQG, for which the amyloid nucleation score came to 1.11 ± 0.49. The result for LTGGVDHC reads 0.138 ± 0.32; that for DVSPLVFVC, -0.407 ± 0.74; that for NVKPSDDNVSLRNYGIRYLE, -0.29 ± 1.1.

As for NEVMRFLSTCCMWIIHTSKV, the amyloid nucleation score result was “inactive”. The result for VELSYCMQRMSARIQCGRKP reads 2.09 ± 0.43. The substance VLYFYFFIQIRVGIQYSVKN had an amyloid nucleation score of 2.41 ± 0.41.

Substance SLAGFCMQPRTLLV showed an amyloid nucleation score of 0.86 ± 0.83.

Regarding FGDSFLSYGHMLIFFWYMTM, the amyloid nucleation score came to 1.21 ± 0.64. Turning to ICLESNRFI, the amyloid nucleation score result was “inactive”. HYVKVRFRNRSVVYALIGGV displayed an amyloid nucleation score of 0.752 ± 0.54.

In the case of IWLSFKDLCKVRICSS, the amyloid nucleation score is 0.803 ± 0.59.

Substance SAFSLIGLIVMNAGK displayed an amyloid nucleation score of 6.04 ± 0.076. As to FVRSFYSDKLWQIFGWVVGS, the amyloid nucleation score is -0.753 ± 0.51.

In turn, PRDASWRTFVAKA displayed an amyloid nucleation score of -0.026 ± 1.7.

Consider FKYYQAGSYNRKRMTQDGGS, for which the amyloid nucleation score turned out to be 0.175 ± 0.46. The result for MGAIFCNGSK reads 0.371 ± 0.67; that for GVKQEHVIPWQEVLGVITL, 1.01 ± 0.84. As to LIMVFVDSLRNRLELCFFQC, the amyloid nucleation score result was “inactive”.

Turning to EFKLDNFQIVGYLLLTRRLI, the amyloid nucleation score was 0.222 ± 0.32. MSGCLDDNANC returned an amyloid nucleation score of -0.382 ± 0.35. Turning to KGYYDFRGVSLMVPVMFTMS, the amyloid nucleation score stood at 0.048 ± 0.38. Take NGMVTLYR: the amyloid nucleation score is 0.977 ± 0.55. Substance TVMFCRQWVFNCVFFIDIVK registered an amyloid nucleation score of 1.31 ± 0.1.

Regarding HAVSDFIPG, the amyloid nucleation score was 0.69 ± 0.41. In the case of IKPDWKMKNRDGTTTKLI, the amyloid nucleation score amounted to 2.6 ± 0.093. The result for RWYVEPSSMFLSRLDGLFYK reads -0.702 ± 1.9. The result for NKEVNYTNIINCVGIRGCRL reads 4.77 ± 0.051. Take FRLMVPGVCRRLANGLRMIW: the amyloid nucleation score was -0.3 ± 0.35. GTLDDTGVTDDNFI yielded an amyloid nucleation score of 1.19 ± 0.4. On to KDRFMSIYLVSYWSGLCTGL, for which the amyloid nucleation score entry was “inactive”. GKWFVKRGRIRSAENCIRLF yielded an amyloid nucleation score of -0.785 ± 1.1. For the substance LLIGYWLNLECLRYEMCHVL, the amyloid nucleation score is -0.396 ± 0.66. As for TVEGSRYFRSSLYHSARSHW, the amyloid nucleation score was 1.14 ± 0.55. The result for GPSLFG reads 0.121 ± 0.37; that for FRICYCWFGGEKDHRNFQIG, 3.86 ± 0.06. LIRNINHWASYRFFCNCSSW came in with an amyloid nucleation score of 6.443 ± 0.06. Substance MDTVFSFYVIIPVQFSCVAL returned an amyloid nucleation score of 3 ± 0.13.

PSFSDLSHALGSSLESWGYR showed an amyloid nucleation score of 0.021 ± 0.8.

In the case of ALRKVYCSFIHNIWACSWAI, the amyloid nucleation score entry is “inactive”. In turn, VYGSPPNMWNVV returned an amyloid nucleation score of 0.066 ± 0.79. NNGAVVSGS gave an amyloid nucleation score of -0.046 ± 0.25.

For QRRHYTWMLIRKRSSLHKAR, the amyloid nucleation score is -0.462 ± 0.59. On to VFIVELNFMLRN, for which the amyloid nucleation score turned out to be 4.69 ± 0.055. Regarding SAPIDISMQLC, the amyloid nucleation score was -0.18 ± 1.7. The substance FYVMSMLIM had an amyloid nucleation score of 0.029 ± 0.47.

The substance TCDFAAWICFYISLWVRVKI gave an amyloid nucleation score of -0.382 ± 0.61. In turn, RQNVQWR gave an amyloid nucleation score of 1.86 ± 0.62. SDNTMSPKLCLMASWVRIST gave an amyloid nucleation score of 0.418 ± 0.23. Substance IVGIVT showed an amyloid nucleation score of 1.04 ± 0.35. On to GGMIAIKHKFIYYDLELWGY, for which the amyloid nucleation score was -0.94 ± 0.43. With DVGGCHVVTGFERNVKGDLL, the amyloid nucleation score was 1.44 ± 0.78. As to ARHSYN, the amyloid nucleation score result was “inactive”. As to VLLQELLSYITIGCLELGFG, the amyloid nucleation score came out at 0.11 ± 0.3. Turning to WFGDGSCKRWLWGMKVTPED, the amyloid nucleation score was -0.518 ± 0.69. RILMFKYGKTWRPQCCQD returned an amyloid nucleation score of 0.04 ± 0.53.

With YDTLMMNNLEMSTFVRMGLW, the amyloid nucleation score was 0.503 ± 0.51. The substance MALMYLMVTRVDLALSL yielded an amyloid nucleation score of 0.072 ± 0.34. As to SGRYMWQEISLMFCLSDVSP, the amyloid nucleation score came to 0.836 ± 0.58.

Turning to LNCCRMGGVLS, the amyloid nucleation score came to 0.11 ± 0.42. The result for SRDASLDRPSRRV reads -0.465 ± 0.49; that for RTSLSLSKVAFNWMFQRYSS, 0.181 ± 1; that for HLYLFSGFRAVSESEVRGAK, 2.6 ± 0.22. The result for FVGFDCYNSVSCCFTMRVSE reads 4.02 ± 0.065. RVVRKPCFPGVGRILSADLA had an amyloid nucleation score of 0.958 ± 0.59. NFNRRRLCIIMKFDDPPLHG displayed an amyloid nucleation score of 0.102 ± 0.24. With PLCLNRVMISAMGVRVR, the amyloid nucleation score is -0.285 ± 0.73.

With YYVFITIYVVSLVCNLSCYF, the amyloid nucleation score was -0.573 ± 0.74. IFYFVL displayed an amyloid nucleation score of 6.8 ± 0.074. Substance LMGGNDNWGTTNPEDGILIW displayed an amyloid nucleation score of -0.347 ± 0.41. Regarding VHTWYHCLSAEMSVMSILDL, the amyloid nucleation score is -0.39 ± 1.7. Turning to RGNVCCTMIC, the amyloid nucleation score amounted to 6.09 ± 0.074. As for YLIVVLCRRCLMGSGYNRIG, the amyloid nucleation score is -0.368 ± 0.97. With TMTFPKVLWPCGLVRNFCST, the amyloid nucleation score is -0.294 ± 0.67. The result for SRNLGMYHMYFKFPWCMNPM reads -0.15 ± 0.46; that for SCPVPKLLAIGLSHVRSFGF, -0.47 ± 0.42; that for LHQVMAWCMGEKWAETRSPW, -0.703 ± 2.1. The result for TCVIFLVLCQALSFPVLALC reads 0.095 ± 0.79; that for FCEDKNRRSSPSIWQNNCKM, 0.829 ± 0.16. As to ISVCFWSIKYRSWAILMPKG, the amyloid nucleation score came to 0.077 ± 0.58. As for QKLCCLSNVVLNTGP, the amyloid nucleation score result was “inactive”. In the case of WVWSLWYSRDGVKVFFDRQS, the amyloid nucleation score was -0.39 ± 0.34. Consider CLSVLSCSVTSNYWLTS, for which the amyloid nucleation score was determined as 7.984 ± 0.056. The substance FAYEAWLMR yielded an amyloid nucleation score of -0.077 ± 0.27.
